The target in experiment [1] is Marchantia polymorpha plant cysteine oxidase (MpPCO), with N-terminal His6-tag (Marchantia polymorpha).
In experiment [2] the target is MpPCOc, Marchantia polymorpha plant cysteine oxidase with the N-terminal His6-tag removed (Marchantia polymorpha).

The values below come from article PMC9585510.

As for “AtRAP2(2-15), 14-mer peptide representing the N-terminus of the A. thaliana ERF-VIIs RAP2.2 and RAP2.12”, the KM for the peptide substrate in steady-state kinetics of Nt-Cys oxidation (LC-MS; atmospheric O2, 25 °C, 50 mM bis-tris propane, 50 mM NaCl, 1 mM TCEP, pH 8.0; fitted with substrate inhibition) in experiment [1] is 11 μM.

Turning to CRMNKRLGKGETGL, in experiment [2], the KM for the peptide substrate in steady-state kinetics of Nt-Cys oxidation (LC-MS; atmospheric O2, 25 °C, 50 mM bis-tris propane, 50 mM NaCl, 1 mM TCEP, pH 8.0) worked out at 509 μM.
